# Measured values as given in patent US20230020406A1 (published 2023).
# Ends that are not written are not given here. * marks the point of attachment. Biotin = O=C1N[C@H]2[C@H](CS[C@H]2CCCCC(=O)*)N1
# T1: AA111-228 DNA-binding domain of RXR-alpha (UniProt P19793 111-228)
# T1 construct: Bought recombinant protein (Abcam), adsorbed to the plate; also called RXRa-DBD
# T1 sequence (looked up): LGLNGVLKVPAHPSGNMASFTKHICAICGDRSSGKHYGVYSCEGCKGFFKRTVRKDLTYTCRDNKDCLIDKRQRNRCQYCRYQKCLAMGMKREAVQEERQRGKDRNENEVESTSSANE
# Target: T1, AA111-228 DNA-binding domain of …
# Assay: plate assay: 1 ug/well RXRa-DBD adsorbed, 800 ng/well SA488-labelled peptide, fluorometer 485/525 nm
# Method: Experiment x3A. […] 1 ug/well recombinant RXRa-DBD (Abcam, Cambridge, Mass.) was adsorbed to wells of a 96-well plate for 60 minutes at RT, then blocked with 200 uL 1% BSA in PBS buffer overnight. […] The plate was incubated for 60 min at room temperature, washed and counted in a standard fluorometer (excitation/emission 485/525 nm). Background (buffer alone) was subtracted.
row,Binder,Fluorescence
1,"Biotin-KNGFYHSRQCETSMDGEAGLCW (cysteine pairing not given here; also: complexed with Streptavidin-Alexa 488 conjugate (SA488), Synthetic peptide with an IGFBP-derived core) [immodulator peptide IM1]",670 fluorescence units (background subtracted)
2,"Biotin-KHGLYNLKQCKMSLNGQRGECW (cysteine pairing not given here; also: complexed with Streptavidin-Alexa 488 conjugate (SA488), Synthetic peptide) [immodulator peptide IM2]",2 fluorescence units (background subtracted)
3,"Biotin-KKGFYKKKQCRPSKGRKRGFCW (cysteine pairing not given here; also: complexed with Streptavidin-Alexa 488 conjugate (SA488), IGFBP-3-derived core; also called 1M3) [immodulator peptide IM3]",6570 fluorescence units (background subtracted)

# The remaining lines, values ahead:
row,Fluorescence,Binder
1,27 fluorescence units (background subtracted),"Biotin-RNGNFHPKQCHPALDGQRGKCW (cysteine pairing not given here; also: complexed with Streptavidin-Alexa 488 conjugate (SA488), Synthetic peptide) [immodulator peptide IM4]"
2,6800 fluorescence units (background subtracted),"Biotin-RKGFYKRKQCKPSRGRKRGICW (cysteine pairing not given here; also: complexed with Streptavidin-Alexa 488 conjugate (SA488), Synthetic peptide; also called 1M5) [immodulator peptide IM5]"
3,587 fluorescence units (background subtracted),"Biotin-HRGFYRKRQCRSSQGQRRGPCW (cysteine pairing not given here; also: complexed with Streptavidin-Alexa 488 conjugate (SA488), Synthetic peptide; also called 1M6) [immodulator peptide IM6]"
